# In US20180155451A1 (published 2018):
# T1: FcγRIIb extracellular domain with C-terminal His tag (human, UniProt P31994 43-217)
# T1 construct: extracellular domain; Soluble receptor expressed in FreeStyle293 cells, used as analyte in Biacore; also called FcgRIIb; 2b; not shown: His tag attached to the C terminus
# T1 sequence (looked up): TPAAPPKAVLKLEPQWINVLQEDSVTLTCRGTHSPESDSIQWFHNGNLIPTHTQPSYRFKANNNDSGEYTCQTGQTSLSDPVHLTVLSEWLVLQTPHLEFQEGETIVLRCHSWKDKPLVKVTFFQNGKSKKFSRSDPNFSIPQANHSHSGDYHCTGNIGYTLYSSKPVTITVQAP
# B1: GpH7-A5/GpH7-B3 variant I336_02A/GpL16-k0 (heterodimerized antibody, He Ab) (antibody, human IgG1, kappa)
# heavy 1: not shown
# heavy 2: not shown
# light: DIVMTQSPLSLPVTPGEPASISCQASESLVHSNRNTYLHWYLQKPGQSPQLLIYKVSNRFSGVPDRFSGSGSGTDFTLKISRVEAEDVGVYYCSQNTHVPPTFGQGTKVEIERTVAAPSVFIFPPSDEQLKSGTASVVCLLNNFYPREAKVQWKVDNALQSGNSQESVTEQDSKDSTYSLSSTLTLSKADYEKHKVYACEVTHQGLSSPVTKSFNRGEC
# notes: Anti-glypican-3 IgG1 heterodimerized antibody; the alteration stands only in the GpH7-B3 chain; Positions in EU numbering; also called I336A
# B2: GpH7-A5/GpH7-B3 variant K334_10E/GpL16-k0 (heterodimerized antibody, He Ab) (antibody, human IgG1, kappa)
# heavy 1: not shown
# heavy 2: not shown
# light: B1 light
# notes: Anti-glypican-3 IgG1 heterodimerized antibody; the alteration stands only in the GpH7-B3 chain (K439E); GpH7-A5 carries D356K/H435R; Positions in EU numbering; also called K334E
# B3: GpH7-A5/GpH7-B3 variant K334_13S/GpL16-k0 (heterodimerized antibody, He Ab) (antibody, human IgG1, kappa)
# heavy 1: not shown
# heavy 2: not shown
# light: B1 light
# notes: Anti-glypican-3 IgG1 heterodimerized antibody; the alteration stands only in the GpH7-B3 chain; Positions in EU numbering; also called K334S
# B4: GpH7-A5/GpH7-B3 variant I336_10E/GpL16-k0 (heterodimerized antibody, He Ab) (antibody, human IgG1, kappa)
# heavy 1: not shown
# heavy 2: not shown
# light: B1 light
# notes: Anti-glypican-3 IgG1 heterodimerized antibody; the alteration stands only in the GpH7-B3 chain; Positions in EU numbering; also called I336E
# B5: GpH7-A5/GpH7-B3 variant K334_20W/GpL16-k0 (heterodimerized antibody, He Ab) (antibody, human IgG1, kappa)
# heavy 1: not shown
# heavy 2: not shown
# light: B1 light
# notes: Anti-glypican-3 IgG1 heterodimerized antibody; the alteration stands only in the GpH7-B3 chain; Positions in EU numbering; also called K334W
# B6: GpH7-A5/GpH7-B3 variant K334_14T/GpL16-k0 (heterodimerized antibody, He Ab) (antibody, human IgG1, kappa)
# heavy 1: not shown
# heavy 2: not shown
# light: B1 light
# notes: Anti-glypican-3 IgG1 heterodimerized antibody; the alteration stands only in the GpH7-B3 chain; Positions in EU numbering; also called K334T
# B7: GpH7-A5/GpH7-B3 variant I336_13S/GpL16-k0 (heterodimerized antibody, He Ab) (antibody, human IgG1, kappa)
# heavy 1: not shown
# heavy 2: not shown
# light: B1 light
# notes: Anti-glypican-3 IgG1 heterodimerized antibody; the alteration stands only in the GpH7-B3 chain; Positions in EU numbering; also called I336S
# B8: GpH7-A5/GpH7-B3 variant K334_15Y/GpL16-k0 (heterodimerized antibody, He Ab) (antibody, human IgG1, kappa)
# heavy 1: not shown
# heavy 2: not shown
# light: B1 light
# notes: Anti-glypican-3 IgG1 heterodimerized antibody; the alteration stands only in the GpH7-B3 chain; Positions in EU numbering; also called K334Y
# B9: GpH7-A5/GpH7-B3 variant I336_15Y/GpL16-k0 (heterodimerized antibody, He Ab) (antibody, human IgG1, kappa)
# heavy 1: not shown
# heavy 2: not shown
# light: B1 light
# notes: Anti-glypican-3 IgG1 heterodimerized antibody; the alteration stands only in the GpH7-B3 chain; Positions in EU numbering; also called I336Y
# B10: GpH7-A5/GpH7-B3 variant I336_14T/GpL16-k0 (heterodimerized antibody, He Ab) (antibody, human IgG1, kappa)
# heavy 1: not shown
# heavy 2: not shown
# light: B1 light
# notes: Anti-glypican-3 IgG1 heterodimerized antibody; the alteration stands only in the GpH7-B3 chain; Positions in EU numbering; also called I336T
# B11: GpH7-A5/GpH7-B3 variant I336_03V/GpL16-k0 (heterodimerized antibody, He Ab) (antibody, human IgG1, kappa)
# heavy 1: not shown
# heavy 2: not shown
# light: B1 light
# notes: Anti-glypican-3 IgG1 heterodimerized antibody; the alteration stands only in the GpH7-B3 chain; Positions in EU numbering; also called I336V
# B12: GpH7-A5/GpH7-B3 variant I336_19Q/GpL16-k0 (heterodimerized antibody, He Ab) (antibody, human IgG1, kappa)
# heavy 1: not shown
# heavy 2: not shown
# light: B1 light
# notes: Anti-glypican-3 IgG1 heterodimerized antibody; the alteration stands only in the GpH7-B3 chain; Positions in EU numbering; also called I336Q
# B13: GpH7-A5/GpH7-B3 variant K334_19Q/GpL16-k0 (heterodimerized antibody, He Ab) (antibody, human IgG1, kappa)
# heavy 1: not shown
# heavy 2: not shown
# light: B1 light
# notes: Anti-glypican-3 IgG1 heterodimerized antibody; the alteration stands only in the GpH7-B3 chain; Positions in EU numbering; also called K334Q
# B14: GpH7-A5/GpH7-B3 variant (H268D)/GpL16-k0 (antibody, human IgG1, kappa)
# heavy 1: not shown
# heavy 2: not shown
# light: B1 light
# notes: also called H268_09D; He Ab
# B15: GpH7-A5/GpH7-B3 variant (A330M)/GpL16-k0 (antibody, human IgG1, kappa)
# heavy 1: not shown
# heavy 2: not shown
# light: B1 light
# notes: also called A330_06M; He Ab
# B16: GpH7-A5/GpH7-B3 variant (K334E)/GpL16-k0 (antibody, human IgG1, kappa)
# heavy 1: not shown
# heavy 2: not shown
# light: B1 light
# notes: also called K334_10E; He Ab
# B17: GpH7-A5/GpH7-B3 variant (A330P)/GpL16-k0 (antibody, human IgG1, kappa)
# heavy 1: not shown
# heavy 2: not shown
# light: B1 light
# notes: also called A330_05P; He Ab
# B18: GpH7-A5/GpH7-B3 variant (K334D)/GpL16-k0 (antibody, human IgG1, kappa)
# heavy 1: not shown
# heavy 2: not shown
# light: B1 light
# notes: also called K334_09D; He Ab
# B19: GpH7-A5/GpH7-B3 variant (H268A)/GpL16-k0 (antibody, human IgG1, kappa)
# heavy 1: not shown
# heavy 2: not shown
# light: B1 light
# notes: also called H268_02A; He Ab
# B20: GpH7-A5/GpH7-B3 variant (H268E)/GpL16-k0 (antibody, human IgG1, kappa)
# heavy 1: not shown
# heavy 2: not shown
# light: B1 light
# notes: also called H268_10E; He Ab
# B21: GpH7-A5/GpH7-B3 variant (K334I)/GpL16-k0 (antibody, human IgG1, kappa)
# heavy 1: not shown
# heavy 2: not shown
# light: B1 light
# notes: also called K334_07I; He Ab
# B22: GpH7-A5/GpH7-B3 variant (K326I)/GpL16-k0 (antibody, human IgG1, kappa)
# heavy 1: not shown
# heavy 2: not shown
# light: B1 light
# notes: also called K326_07I; He Ab
# B23: GpH7-A5/GpH7-B3 variant (S298A)/GpL16-k0 (antibody, human IgG1, kappa)
# heavy 1: not shown
# heavy 2: not shown
# light: B1 light
# notes: also called S298_02A; GpH7-A5/GpH7-B3-15-02A/GpL16-k0
# B24: GpH7-A5/GpH7-B3 variant (K326T)/GpL16-k0 (antibody, human IgG1, kappa)
# heavy 1: not shown
# heavy 2: not shown
# light: B1 light
# notes: also called K326_14T; He Ab
# B25: GpH7-A5/GpH7-B3 variant (A330F)/GpL16-k0 (antibody, human IgG1, kappa)
# heavy 1: not shown
# heavy 2: not shown
# light: B1 light
# notes: also called A330_04F; He Ab
# B26: GpH7-A5/GpH7-B3 variant (K326D)/GpL16-k0 (antibody, human IgG1, kappa)
# heavy 1: not shown
# heavy 2: not shown
# light: B1 light
# notes: also called K326_09D; He Ab
# Target: T2, FcγRIIIa extracellular domain with C-terminal His tag (human, UniProt P08637 17-208)
# T2 construct: extracellular domain; Soluble receptor expressed in FreeStyle293 cells, used as analyte in Biacore; also called FcgRIIIa; 3a; not shown: His tag attached to the C terminus
# T2 sequence (P08637 17-208): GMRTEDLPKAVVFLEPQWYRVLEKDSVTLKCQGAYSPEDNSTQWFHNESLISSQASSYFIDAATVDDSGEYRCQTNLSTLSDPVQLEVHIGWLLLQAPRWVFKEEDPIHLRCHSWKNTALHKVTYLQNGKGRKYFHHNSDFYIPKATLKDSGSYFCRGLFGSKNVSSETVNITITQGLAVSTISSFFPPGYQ
# Test: SPR (Biacore), antibody captured via antigen peptide, FcγR as analyte; binding amount relative to control heterodimerized antibody
# Procedure: (§1) The heterodimerized antibodies He Abs in which one of the H chains was introduced with an alteration were assayed for their binding activities to each activating FcγR and inhibitory FcγR according to the method described in Example 4. […] The activating FcγRs in FIGS. 26, 27, 28, and 29 are FcγRIa, FcγRIIa (R), FcγRIIa (H), and FcγRIIIa, respectively.
# (§2) Analysis of interaction between objective antibody and the FcγR was carried out using Biacore T100 (GE Healthcare). HBS-EP+ (GE Healthcare) was used as the running buffer, and the measurement temperature was set to 25° C. Chips produced by immobilizing the antigen peptide by the amine coupling method to a Series S Sencor Chip CM5 (GE Healthcare), or alternatively, chips produced by allowing preliminarily biotinylated antigen peptides to interact with and immobilize onto a Series S Sensor Chip SA (certified) (GE Healthcare) were used. Antibodies of interest were captured onto an antigen peptide-immobilized chip, and allowed to interact to each FcγR diluted with running buffer. To regenerate and repeatedly use the chip, the antibodies captured on the chip were washed off by reacting 10 mM glycine-HCl, pH 1.5.
row,He/Con_3a (IIIa binding),Binder
1,"111 relative binding, GpH7-A5/GpH7-B3/GpL16-k0 = 100",B1
2,"181 relative binding, GpH7-A5/GpH7-B3/GpL16-k0 = 100",B2
3,"145 relative binding, GpH7-A5/GpH7-B3/GpL16-k0 = 100",B3
4,"119 relative binding, GpH7-A5/GpH7-B3/GpL16-k0 = 100",B4
5,"128 relative binding, GpH7-A5/GpH7-B3/GpL16-k0 = 100",B5
6,"141 relative binding, GpH7-A5/GpH7-B3/GpL16-k0 = 100",B6
7,"102 relative binding, GpH7-A5/GpH7-B3/GpL16-k0 = 100",B7
8,"141 relative binding, GpH7-A5/GpH7-B3/GpL16-k0 = 100",B8
9,"87.3 relative binding, GpH7-A5/GpH7-B3/GpL16-k0 = 100",B9
10,"108 relative binding, GpH7-A5/GpH7-B3/GpL16-k0 = 100",B10
11,"112 relative binding, GpH7-A5/GpH7-B3/GpL16-k0 = 100",B11
12,"92.5 relative binding, GpH7-A5/GpH7-B3/GpL16-k0 = 100",B12
13,"136 relative binding, GpH7-A5/GpH7-B3/GpL16-k0 = 100",B13

# Target: T1, FcγRIIb extracellular domain with …
# Test: as above
# Procedure: as §1, §2
row,He/Con_2b (IIb binding),Binder
1,"84.9 relative binding, GpH7-A5/GpH7-B3/GpL16-k0 = 100",B1
2,"114 relative binding, GpH7-A5/GpH7-B3/GpL16-k0 = 100",B2
3,"111 relative binding, GpH7-A5/GpH7-B3/GpL16-k0 = 100",B3
4,"89.8 relative binding, GpH7-A5/GpH7-B3/GpL16-k0 = 100",B4
5,"104 relative binding, GpH7-A5/GpH7-B3/GpL16-k0 = 100",B5
6,"115 relative binding, GpH7-A5/GpH7-B3/GpL16-k0 = 100",B6
7,"83.7 relative binding, GpH7-A5/GpH7-B3/GpL16-k0 = 100",B7
8,"109 relative binding, GpH7-A5/GpH7-B3/GpL16-k0 = 100",B8
9,"68.2 relative binding, GpH7-A5/GpH7-B3/GpL16-k0 = 100",B9
10,"89.5 relative binding, GpH7-A5/GpH7-B3/GpL16-k0 = 100",B10
11,"90.3 relative binding, GpH7-A5/GpH7-B3/GpL16-k0 = 100",B11
12,"58.2 relative binding, GpH7-A5/GpH7-B3/GpL16-k0 = 100",B12
13,"109 relative binding, GpH7-A5/GpH7-B3/GpL16-k0 = 100",B13

# Target: T3, FcgRIIIa F (human, UniProt P08637 17-208)
# T3 construct: extracellular domain; also called FcγRIIIa F; 3aF; not shown: His tag attached to the C terminus
# T3 sequence (P08637 17-208): as above
# Test: SPR (Biacore); binding of the heterodimerized antibody relative to GpH7-A5/GpH7-B3/GpL16-k0 = 100
row,He/Con_3aF,Binder
1,195,B14
2,139,B15
3,186,B16
4,152,B17
5,164,B18
6,121,B19
7,184,B20
8,156,B21
9,153,B22
10,151,B23
11,140,B24
12,144,B25
13,148,B26

# Target: T2, FcγRIIIa extracellular domain with …
# Test: SPR (Biacore); ratio of He/Con_3a (FcγRIIIa) to He/Con_2b (FcγRIIb)
# Procedure, shortened: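 Each FcγR was diluted in HBS-EP+ and injected at 25 °C over antibody held by an antigen-peptide sensor surface. Bound antibody was stripped with 10 mM glycine-HCl, pH 1.5, so chips could be reused.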
row,IIIa/IIb (He_3a/2b) [ratio],Binder
1,1.31,B1
2,1.58,B2
3,1.31,B3
4,1.33,B4
5,1.23,B5
6,1.23,B6
7,1.21,B7
8,1.29,B8
9,1.28,B9
10,1.21,B10
11,1.24,B11
12,1.59,B12
13,1.25,B13
